Target: 2019-nCoV N protein (SARS-CoV-2, UniProt P0DTC9)
Test: BLI

B1: WT anti-N antibody (antibody, V domains shown)
VH: QIQLVQSGPELKKPGETVKISCKASGFTFTDYAMNWVKQAPGKGLKWMGWLNTYSGEPTYAEDFKGRFAFSLETSASTAYLQINNLKNEDTATYFCARTAILRSYFDYWGQGTTLTVSS
VL: DIVMTQSHKFMSTSVGDRVSITCKASEDLSTALAWCQQKPGQSPKLLIYWGSTRHSGVPDRFTGIRSGTDYTLTISSVQAEDLALYYCQQHWSTPLTFGAGTKLELKR
Q: Which Kd does the source give for B1 here?
A: 7.25 nM

From patent US20260327291 (published 2026)
